US20190092871A1 (VIB VZW, published 2019)

B1: 2HCD16 (VHH)
VHH: QVQLQESGGGLVQAGGSLRLSCAASGRTFSRQSMGWFRQAPGKEREFVAVITWSGGSPYYADSVRGRFTISRDNAKNTVYLQMNSLKPEDTAVYYCAAPVSYGSQWLADYWGQGTQVTVSS
notes: Whole entry = VHH-AAA-HA-His6 (pMECS construct)
B2: R3CD7 (VHH)
VHH: QVQLQESGGGLVQAGGSLRLSCAASGRSFSSVNMGWFRQAPGKEREFVAVIDWSGGSPYYTDSVRGRFTISRDNSKNTVYLQMNSLKPEDTAVYYCAAGVSYGSRWLGDYWGQGTQVTVSS
notes: as for B1
B3: R3CD105 (VHH)
VHH: QVQLQESGGGLVQAGGSLRLSCAASGRTFSNYNMGWFRQAPGKEREFVAAIDWSGGSPYYAASVRGRFTISRDNAENTVYLQMNSLKPEDTAVYYCAAPLSYGSTWLADYWGQGTQVTVSS
notes: as for B1
B4: 2HCD42 (VHH)
VHH: QVQLQESGGGLVQAGGSLRLSCAASGRTFSSYAMGWFRQAPGKEREFVAVITWSGGSPYYADSVRGRFTISRDNAKNTVYLQMNSLKPEDTAVYYCAAPVSYGSQWLADYWGQGTQVTVSS
notes: as for B1
B5: 2HCD35 (VHH)
VHH: QVQLQESGGGLVQAGGSLRLSCAASGRTFSGQSMGWFRQAPGKEREFVAVITWSGGSPYYADSVRGRFTISRDNAKNTVHLQMNSLKPEDTAVYYCAAPVSYGSQWLADYWGQGTQVTVSS
notes: as for B1
B6: R3CD18 (VHH)
VHH: QVQLQESGGGLVQAGGSLRLSCAASGRTFSNSNMGWFRQAPGKEREFVAVIDWSGGSPYYTDSVRGRFTISRDNAKNTVYLQMNRLKPEDTAVYYCAGGVSFGSRWLSDYWGQGTQVTVSS
notes: as for B1
B7: 2HCD22 (VHH)
VHH: QVQLQESGGGLVQAGDSLRLSCAASGRTFSRQSMGWFRQAPGKEREFVAVITWSGGSPYYADSVKGRFTISRDNAKNTVYLQMNSLKPEDTAVYYCAAPVSYGSQWLADYWGQGTQVTVSS
notes: as for B1
B8: R2MUC36 (VHH)
VHH: QVQLQESGGGLVQAEGSLRLSCAASGRTRDANAMGWFRQAPGKERELVAAISWSGSRTYYADSVKGRFTISRDNVMHTVYLSMNSLKPEDTAVYYCAADRSIEVQIADYDYWGRGTQVTVSS
notes: as for B1
B9: R2MUC70 (VHH)
VHH: QVQLQESGGGLVQAGGSLRLSCAASGRDFATYSMAWFRQAPGKERESVATISWSGQRTRYADSVKGRFTISRDNAKNTVYLQMNSLKPEDTAVYYCAAPRTWGEFPPTQYDSWGQGTQVTVSS
notes: as for B1
B10: 2MC57 (VHH)
VHH: QVQLQESGGGLVQAGGSLRLSCAASGRDFATYSMAWFRQAPGKERESVATISWSGQRTRYADSVKGRFTISRDNAKNTVYLQMNSLKPEDTAVYYCAMPRTWGEFPPTQYDSWGQGTQVTVSS
notes: Whole entry = VHH-AAA-HA-His6 (pMECS construct); also called mCD20 Nb
B11: 2MC52 (VHH)
VHH: QVQLQESGGGLVQAGGSLRLSCVASGRTFNTYSMGWFRQAPGKEREFVASISWSGQRSRYADSVKGRFTISRDNAKNTVYLQMNSLKPEDTAVYYCASPRTWGEFPPTQYDSWGQGTQVTVSS
notes: as for B1
B12: R3MUC58 (VHH)
VHH: QVQLQESGGGLVQPGGSLRLSCAASGRDFATYSMAWFRQAPGKERESVATISWSGQRTRYADSVKGRFTISRDNAKNTVYLQMNSLKPEDTAVYYCAAPRTWGEFPPTQYDSWGQGTQVTVSS
notes: as for B1
B13: R3MUC22 (VHH)
VHH: QVQLQESGGGLVQAGGSLRLSCAASGRTFSTYSMGWFRQAPGKEREFVAIISWSGQRTRYADSVKGRFTISRDNAKNTVYLQMNSLKPEDTAVYYCAAPRTWGEFPPTQYDSWGQGTQVTVSS
notes: as for B1
B14: R3MUC75 (VHH)
VHH: QVQLQESGGGSVQTGGSLRLSCAASGRDFSTYSMGWFRQAPGKERESVATISWSGQRTRYADSVKGRFTISRDNAKNTVYLQMNSLKPEDTAVYYCAAPRTWGEFPPTQYDSWGQGTQVTVSS
notes: as for B1
B15: R3MUC57 (VHH)
VHH: QVQLQESGGGLVQAGGSLRLSCAASGRDFATYSMAWFRQAPGEERESVATISWSGQRTRYADSVKGRFTISRDNAKNTVYLQMNSLKPEDTAVYYCAAPRTWGEFPPTQYDSWGQGTQVTVSS
notes: as for B1
B16: R3MUC17 (VHH)
VHH: QVQLQESGGGLVPAGGSLRLSCAASGRDFATYSMAWFRQAPGKERESVATISWSGQRTRYADSVKGRFTISRDNAKNTVYLQMNSLKPEDTAVYYCAAPRTWGEFPPTQYDSWGQGTQVTVSS
notes: as for B1
B17: R2MUC85 (VHH)
VHH: QVQLQESGGGLVQPGGSLRLSCATSGRDFATYSMAWFRQAPGKERESVATISWSGQRTRYADSVKGRFTISRDNAKNTVYLQMNSLKPEDTAVYYCAAPRTWGEFPPTQYDSWGQGTQVTVSS
notes: as for B1
B18: R2MUC21 (VHH)
VHH: QVQLQESGGGLVQAGDSLRLSCAASGRDFSTYSMGWFRQAPGKERESVATISWSGQRTRYADSVKGRFTISRDNAKNTVYLQMNSLKPEDTAVYYCAAPRTWGEFPPTQYDSWGQGTQVTVSS
notes: as for B1
B19: R3MUC66 (VHH)
VHH: QVQLQESGGGLVQAGGSLRLSCAASGRDFATYSMTWFRQAPGKERESVATISWSGQRTRYADSVKGRFTISRDNAKNTVYLQMNSLRPEDTAVYYCAAPRTWGEFPPTQYDSWGQGTQVTVSS
notes: as for B1
B20: R3MUC56 (VHH)
VHH: QVQLQESGGGLVQAGDSLRLSCAASGRDFATYSMAWFRQAPGKERESVATISWSGQRTRYADSVKGRFTISRDNAKNTVYLQMNSLKPEDTAVYYCAAPRTWGEFPPTQYDSWGQGTQVTVSS
notes: as for B1
B21: 2MC39 (VHH)
VHH: QVQLQESGGGLAQAGNSLRISCVASGNTFDTRAMGWFRQAPGKEREFVAAISRSSFNTYYSDSVTGRFTISRDNAKNTVYLQMNSLKPEDTAVYYCAAGKYGMKWRDGADYWGQGTQVTVSS
notes: as for B1
B22: 2MC38 (VHH)
VHH: QVQLQESGGGLVQAGESLRISCVASGNTFDTRAMGWFRQAPGKEREFVAAISRSSFNTYYSDSVTGRFTISRDNAKNTVYLQMNSLKPEDTAVYYCVAGKYGMKWRDGADYWGQGTQVTVSS
notes: as for B1
B23: 2MC82 (VHH)
VHH: QVQLQESGGGLAQEGGSLRLSCVASGNTFDTRAMGWFRQAPGKEREFVAAISRSSFNTYYSDSVTGRFTISRDNAKNMVYLQMNSLKPEDTAVYYCAAGKYGMKWRDGADYWGQGTQVTVSS
notes: as for B1
B24: 2MC42 (VHH)
VHH: QVQLQESGGGSVQTGGTLTLSCVASGNTFDTRAMGWFRQAPGEEREFVAAISRSSFNTYYSDSVTGRFTISRDNAKNTVYLQMNSLKPEDTAVYYCAAGKYGMKWRDGADYWGQGTQVTVSS
notes: as for B1
B25: 2MC51 (VHH)
VHH: QVQLQESGGGLAQAGNSLRISCVASGNTFDTRAMGWFRQAPGKEREFVAAISRSSFNTYYSDSVTGRFTISRDNAKNTVYLQMNSLKPEDTAVYYCVAGKYGMKWRDGADYWGQGTQVTVSS
notes: as for B1
B26: 2MC20 (VHH)
VHH: QVQLQESGGGLVQTGGSLRLSCAASGNTFDTRAMGWFRQAPGKEREFVAAISRSSFNTYYSDSVTGRFTISRDNAKNTVYLQMNSLKPEDTAVYYCAAGKYGMKWRDGADYWGQGTQVTVSS
notes: as for B1

molecular target: T1, human CD20 (human, UniProt P11836 1-297); assay: cell ELISA, crude periplasmic extract, CHO-K1 expressing human CD20 against parental CHO-K1
T1 construct: The forward primer starts at codon 2; also called hCD20; CHO-K1-hCD20
T1 sequence: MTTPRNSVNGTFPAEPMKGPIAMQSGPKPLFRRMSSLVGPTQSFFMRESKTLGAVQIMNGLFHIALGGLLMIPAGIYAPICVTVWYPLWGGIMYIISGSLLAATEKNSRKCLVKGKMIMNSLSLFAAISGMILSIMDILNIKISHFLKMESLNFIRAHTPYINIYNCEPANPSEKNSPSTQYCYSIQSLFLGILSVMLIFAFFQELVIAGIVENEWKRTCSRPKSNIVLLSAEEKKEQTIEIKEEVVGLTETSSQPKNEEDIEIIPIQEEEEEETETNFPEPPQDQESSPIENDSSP

Binder	binding result
B1	binds
B2	binds
B3	binds
B4	binds
B5	binds
B6	binds
B7	binds

molecular target: T2, mouse CD20 (mouse, UniProt P19437 1-291); assay: cell ELISA, crude periplasmic extract, CHO-K1 expressing mouse CD20 against parental CHO-K1
T2 construct: whole, on cells; also called mCD20; CHO-K1-mCD20
T2 sequence (looked up): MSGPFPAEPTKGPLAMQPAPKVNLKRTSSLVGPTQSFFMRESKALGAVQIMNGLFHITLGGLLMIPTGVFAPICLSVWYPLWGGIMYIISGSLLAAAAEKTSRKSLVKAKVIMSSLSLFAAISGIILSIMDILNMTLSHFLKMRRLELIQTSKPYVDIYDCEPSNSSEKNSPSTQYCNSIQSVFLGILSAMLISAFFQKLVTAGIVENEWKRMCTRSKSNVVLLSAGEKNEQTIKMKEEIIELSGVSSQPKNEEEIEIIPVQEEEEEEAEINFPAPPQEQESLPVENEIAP
Method: The library was subjected to 3 consecutive rounds of panning (in solution), performed on stably transfected CHO-K1 cells expressing mouse CD20. A parallel panning was performed on parental (non-transfected CHO-K1) cells to serve as negative control for the calculation of CD20-specific phage enrichment. The enrichment for antigen-specific phages was assessed after each round of panning by comparing the number of phagemid particles eluted from transfected cells with the number of phagemid particles eluted from parental cells. […] In total, 285 colonies (95 from each round of panning) were randomly selected and their crude periplasmic extracts (including soluble VHHs) were analyzed by cell ELISA for specific binding to transfected CHO-K1, as compared to parental cells. […] The 11 different VHHs belong to 2 different groups.
The library was subjected to 2 consecutive rounds of panning (in solution), performed on stably transfected CHO-K1 cells expressing mouse CD20 as described above. Here, the phage population was enriched (for antigen-specific phages) about 2- and 45-fold after 1st and 2nd rounds of panning, respectively. Here, 190 colonies, randomly picked from 2nd round, were tested by cell ELISA as above and 10 colonies scored positive. Based on sequence data, the 10 positive colonies represented 8 different VHHs (FIG. 4, bottom panel). The 8 different VHHs belong to 2 different groups. One of the groups identified here is the same group as one of those identified above.

Binder	binding result
B8	binds
B9	binds
B10	binds
B11	binds
B12	binds
B13	binds
B14	binds
B15	binds
B16	binds
B17	binds
B18	binds
B19	binds
B20	binds
B21	binds
B22	binds
B23	binds
B24	binds
B25	binds
B26	binds
